From paper PMC11585616, “Allosteric substrate release by a sialic acid TRAP transporter substrate binding protein” (Communications Biology, 2024) come the findings set out here.

Settings in all cases: both partners purified
Assay [1] concerns the target T1, VcSiaP (Vibrio cholerae O1 El Tor N16961 …, UniProt Q9KR64).
T1 construct: all residues 1-299 seen in the crystal structures; also called SiaP from V. cholerae; VcSiaPwt; not shown: His6, N-terminal, cleaved
The assay is described as follows: ITC; VHH titrated to the SBP, 25 °C, 50 mM Tris, 50 mM NaCl, pH 8.0; one set of sites model. In general terms: ITC needs no label: the signal is the heat of the interaction.

For assay [2], the target named is T1, VcSiaP. In words: SEC-MALS; Superose6 increase 10/300, room temperature, 50 mM Tris, 50 mM NaCl, pH 8.0; 120 uM of each protein. For orientation: SEC sorts molecules by how far they enter the pores of the column.
The target in assay [3] is T1, VcSiaP. The assay is described as follows: ITC; SiaP first loaded with Neu5Ac, then titrated with the VHH (sequential titration), 25 °C, 50 mM Tris, 50 mM NaCl, pH 8.0; competitive binding model for the wild type.

Several values for one entry are separate records, joined by “and”; a condition that tells them apart may be missing. Equal values may be shown once.

T1 sequence (Q9KR64 23-321, one chain of several): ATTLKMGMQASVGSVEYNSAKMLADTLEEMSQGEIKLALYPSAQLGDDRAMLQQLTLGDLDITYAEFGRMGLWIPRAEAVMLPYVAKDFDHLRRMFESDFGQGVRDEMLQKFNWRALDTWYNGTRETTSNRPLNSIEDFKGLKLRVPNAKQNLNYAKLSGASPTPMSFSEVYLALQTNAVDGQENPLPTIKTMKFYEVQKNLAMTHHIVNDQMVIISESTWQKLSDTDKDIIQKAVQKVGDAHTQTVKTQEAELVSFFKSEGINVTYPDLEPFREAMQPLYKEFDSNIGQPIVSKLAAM

B1: VHHVcP #2 (VHH)
VHH: QVQLVESGGRLVQTGGSLRLSCAASGDTFSNYVMGWFRQAPGKEREFVAAISWTGANSYYADSVAGRFTISRDNAKNTVALQMNSLKPEDTAIYYCAADHFHVTHRKYDYWGQGTQVTVSS
notes: alpaca VHH raised against VcSiaP; A second construct (pET28a, N-terminal pelB-His6-TEV, tag cleaved) was made to improve crystallization; also called Vc#2; source: E. coli WK6, periplasmic extract, purified (Ni2+-NTA, SEC); not shown: HA, C-terminal, kept; His6, C-terminal, kept
For the molecule B1, the Kd – broadly, the equilibrium constant for the complex coming apart – in assay [1] is 13 nM and 16 nM. Further, the stoichiometry N (commonly a count of units in the complex or per binding partner) was 1 in assay [2] and approximately 1 in assay [3].

B2: VHHVcP #1 (VHH)
VHH: QVQLVESGGGLVQAGGSLRLSCAASGRTFSSSTMGWFRQAPGKEREFVAGISWSDGSTYYADSVKGRFTISRDNAKNTVYLQMNSLKPEDSAVYYCAAERWLATPQAMAVTPNALDAWGQGTQVTVSS
notes: alpaca VHH raised against VcSiaP; A second construct (pET28a, N-terminal pelB-His6-TEV, tag cleaved) was made to improve crystallization; also called Vc#1; source: E. coli WK6, periplasmic extract, purified (Ni2+-NTA, SEC); not shown: HA, C-terminal, kept; His6, C-terminal, kept
In assay [1], B2 registered a Kd of 162 nM. Besides, the “stoichiometry N” value in assay [2] was determined as 1.
